Tests used:
[1] = molecular target: recombinant nucleoprotein (NP) of influenza A/Brisbane/10/2007 (H3N2) (Influenza A virus A/Brisbane/10/2007 …, UniProt P03466, strain); assay: BLI
[2] = molecular target: NP in H1N1 viral lysate (A/Puerto Rico/8/34) (Influenza A virus A/Puerto Rico/8/1934 …, UniProt P03466); assay: far-Western, overlay or dot blot
[3] = molecular target: NP WT 1–498 (deletion library, wild type) (Influenza A virus A/California/07/2009 …, UniProt C6KQ05, strain); assay: far-Western, overlay or dot blot
[4] = molecular target: recombinant NP of influenza A/PR/8/34 (H1N1) purified from bacteria (Influenza A virus A/Puerto Rico/8/1934 …, UniProt P03466); assay: far-Western, overlay or dot blot

B1: anti-NP mouse monoclonal antibody HB65 (antibody, V domains shown)
VH: EVKLVESGGALVNPGGSLKLSCAASGFIFSSYAMSWIRQTPEKRLEWVASTSGGGTTYYLDSVRGRFTISRDNARRILYLQMTSLRSEDTAIYFCGRDGNWFTSWGQGTLVTVSI
VL: NIVMTQSPKSMSMSVGERVTLTCKASENVVTYVSWYQQKPEQSPKLLIYGASNRYTGVPDRFTGSGSATDFTLTISSVQAEDLADYHCGQGYSYPYTFGGGTKLEIK
[1]
  Kd: 120 ± 21 nM
[2]
  binding result: binds
[3]
  binding result: binds
[4]
  binding result: binds

— PMC11994974 (Virus Research, 2025)
